Assay results taken from patent US20060234917A1.

What was measured:
[1] = target: BAFF (Homo sapiens (Human)) (UniProt Q9Y275); assay: BIAcore 3000, solution-phase equilibrium binding, fit to a quadratic equation
[2] = target: BAFF (Homo sapiens (Human)) (UniProt Q9Y275); assay: BIAcore 3000, solution-phase equilibrium binding; free BAFF read on a BCMA-Fc chip; apparent KD

Substance | stoichiometry (BAFF:BAFF-R:Fc) (BAFF:BAFF-R:Fc) [1] | Kd [2] [µM]
vBAFF-R(R3-A49):Fc (from UniProt Q96RJ3 2-48) (Fc fusion) | 1 | < 200
vBAFF-R(R3-A72):Fc (from UniProt Q96RJ3 2-71) (Fc fusion) | 1 | < 200
